Results: paper PMC3210020
Like-named read-outs stand apart in the source and are kept apart here. Each block holds one molecule with its values, some of them ahead of it.

Experiments:
integrin αIIbβ3 (human) [1] = target: integrin αIIbβ3 (human) (UniProt P05106); experiment: ELISA
integrin αIIbβ3 (human) [2] = target: integrin αIIbβ3 (human) (UniProt P05106); experiment: SPR
[3] = target: integrin αIIbβ3 (Homo sapiens) (UniProt P08514); conditions: cited from earlier work
[4] = target: integrin αIIbβ3 (Homo sapiens) (UniProt P08514); conditions: cited from earlier work; remark: listed apart in the source
[5] = target: integrin αIIbβ3 (Homo sapiens) (UniProt P08514); experiment: SPR; conditions: cited from earlier work
[6] = target: integrin αIIbβ3 (Homo sapiens) (UniProt P08514); experiment: solid-phase binding; conditions: cited from earlier work
integrin αIIbβ3 (human) [7] = target: integrin αIIbβ3 (human) (UniProt P05106); experiment: SPR; remark: listed apart in the source
integrin αIIbβ3 (human) [8] = target: integrin αIIbβ3 (human) (UniProt P05106); experiment: SPR; remark: listed apart in the source

Kd (integrin αIIbβ3 (human) [2]): 3.2 nM | dH (integrin αIIbβ3 (human) [2]): -11.7 kcal/mol | fold slower off rate at 15 °C than at 37 °C (integrin αIIbβ3 (human) [2]): 7 fold | fold slower on rate at 15 °C than at 37 °C (integrin αIIbβ3 (human) [2]): 2 fold | fold tighter binding at 15 °C than at 37 °C (integrin αIIbβ3 (human) [2]): 4 fold | koff (integrin αIIbβ3 (human) [2]): 7.01e-05 s⁻¹ | kon (integrin αIIbβ3 (human) [2]): 21900 M⁻¹ s⁻¹ | Kd (integrin αIIbβ3 (human) [7]): 4.42 nM | koff (integrin αIIbβ3 (human) [7]): 8.41e-05 s⁻¹ | kon (integrin αIIbβ3 (human) [7]): 19000 M⁻¹ s⁻¹
Molecule: human fibrinogen (plasma), (AαBβγ)2 (from UniProt P02671-2 36-644; P02675 45-491; P02679-2 27-437) (natural protein)

kon (integrin αIIbβ3 (human) [2]): 21900 M⁻¹ s⁻¹
Molecule: normal recombinant fibrinogen (from UniProt P02671-2 36-644; P02675 45-491; P02679-2 27-437) (natural protein)

percent reduction of the fibrinogen (100 nM) binding signal at 3 µM peptide (integrin αIIbβ3 (human) [8]): < 10%
B1: synthetic γ-module peptide … (peptide)
peptide: HHLGGAKQAGDV

Continued, molecule first:

Molecule: biotinylated fibrinogen (from UniProt P02671-2 36-644; P02675 45-491; P02679-2 27-437) (natural protein)
midpoint of the saturable binding profile (integrin αIIbβ3 (human) [1]): 2 nM

Molecule: eptifibatide (peptide)
Ki (integrin αIIbβ3 (human) [2]): 0.4 nM

Molecule: fibrinogen (from UniProt P02671)
Kd [3]: 50 nM | Kd [4]: 165 nM | Kd [5]: 3 nM | Kd [6]: 60 nM
